Our source for the OD450 values is patent publication CN106914229A.

Test [1] has as its target Myc-GST融合蛋白(Myc标签与谷胱甘肽融合的蛋白). Put plainly: ELISA on coated Myc-GST (5 μg/mL), anti-His-HRP detection, heat tolerance test at 80℃. Background: ELISA stands for enzyme-linked immunosorbent assay.
The target of test [2] is Myc-GST融合蛋白(Myc标签与谷胱甘肽融合的蛋白). The test is described as follows: ELISA on coated Myc-GST (5 μg/mL), anti-His-HRP detection, heat tolerance test at 70℃.
For test [3], the target named is Myc-GST融合蛋白(Myc标签与谷胱甘肽融合的蛋白). The test is described as follows: ELISA on coated Myc-GST (5 μg/mL), anti-His-HRP detection, heat tolerance test at 90℃.

B1: 抗c-Myc标签单域重链抗体 (VHH)
VHH: QLQLVESGGGSVQPGGSLTLSCSASGFNISQYSVGWFREAPGEEREGISCLDIDGKITTFSDAIQGRFTIARDNAANMIYLHMDALNPLDTAVYRCVARWDCSRHDFITQKTATGIWGPGTQVTVSA
For B1, the OD450 was found to be 1.3 OD450 in test [1], 1.5 OD450 in test [2] and 1.1 OD450 in test [3].
